Laboratory results reported in publication PMC12874534.

Biological target: Bcl-XL-126Bpa (UniProt Q07817)
Test: BLI

UniProt Q07817, sequence (Q07817 whole entry): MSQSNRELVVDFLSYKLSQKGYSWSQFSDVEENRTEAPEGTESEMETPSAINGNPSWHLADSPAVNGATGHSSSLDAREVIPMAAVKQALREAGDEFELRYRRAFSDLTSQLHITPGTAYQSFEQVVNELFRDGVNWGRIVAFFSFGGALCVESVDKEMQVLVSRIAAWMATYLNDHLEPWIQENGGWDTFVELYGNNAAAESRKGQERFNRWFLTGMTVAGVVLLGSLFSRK

“Bid-83Bpa (from UniProt P55957 1-195) (natural protein)” was tested, and the Kd was 1770 nM.
